Legend:
Parameters in all cases: species or system human
Conditions in all cases: 1 µg/mL LG domain coated; 1 μg/mL GF; vs BSA-coated wells; n = 4
PlGF-2 = experiment: ELISA: PlGF-2 binding to laminin LG domain / laminin peptide
Experimental: (§1) ELISA tests were performed as described above. In brief, ELISA plates were coated with 1 μg/mL of laminin alpha 3 LG domain recombinant protein, laminin alpha 4 LG domain recombinant protein (R&D Systems), laminin alpha 5 LG domain recombinant protein (LD BioPharma), or laminin peptide (sequences are described in Supplementary Table 1, chemically synthesized by Genscript) in PBS for 2 h at 37 °C. A concentration of 1 μg/mL of BSA served as non-binding protein control. After blocking with 2% BSA PBS-0.05% Tween 20 (PBS-T) solution, 1 μg/mL of the recombinant human proteins (VEGF-A121, VEGF-A165, PlGF-1, PlGF-2, PDGF-BB, or FGF-2) or 10 μg/mL of biotinylated heparin (Sigma-Aldrich) were added. Bound GF was detected with biotinylated antibodies for human VEGF-A, PlGF, PDGF-BB (R&D Systems, Catalog No. DY220, 1:180 dilution), or FGF-2 (R&D Systems). The antibodies were detected by streptavidin-HRP (R&D Systems).

VEGF-A121 = experiment: ELISA: VEGF-A121 binding to laminin LG domain / laminin peptide
Experimental: as §1

FGF-2 = experiment: ELISA: FGF-2 binding to laminin LG domain / laminin peptide
Experimental: as §1

PDGF-BB = experiment: ELISA: PDGF-BB binding to laminin LG domain / laminin peptide
Experimental: as §1

VEGF-A165 = experiment: ELISA: VEGF-A165 binding to laminin LG domain / laminin peptide
Experimental: as §1, with “ELISA plates were coated with 1 μg/mL of laminin alpha 3 LG domain” left out

PlGF-1 = experiment: ELISA: PlGF-1 binding to laminin LG domain / laminin peptide
Experimental: as §1

B1: LAMA5_3026–3482: laminin alpha 5 LG domain recombinant protein (LD BioPharma) (protein)
chain: AIQVFLLGGSRKRVLVRVERATVYSVEQDNDLELADAYYLGGVPPDQLPPSLRRLFPTGGSVRGCVKGIKALGKYVDLKRLNTTGVSAGCTADLLVGRAMTFHGHGFLRLALSNVAPLTGNVYSGFGFHSAQDSALLYYRASPDGLCQVSLQQGRVSLQLLRTEVKTQAGFADGAPHYVAFYSNATGVWLYVDDQLQQMKPHRGPPPELQPQPEGPPRLLLGGLPESGTIYNFSGCISNVFVQRLLGPQRVFDLQQNLGSVNVSTGCAPALQAQTPGLGPRGLQATARKASRRSRQPARHPACMLPPHLRTTRDSYQFGGSLSSHLEFVGILARHRNWPSLSMHVLPRSSRGLLLFTARLRPGSPSLALFLSNGHFVAQMEGLGTRLRAQSRQRSRPGRWHKVSVRWEKNRILLVTDGARAWSQEGPHRQHQGAEHPQPHTLFVGGLPASSHSSKLP
binding to PlGF-2 (ELISA), recombinant LG domains (PlGF-2): bound | binding to VEGF-A121 (ELISA), recombinant LG domains (VEGF-A121): did not show any binding | binding to FGF-2 (ELISA), recombinant LG domains (FGF-2): bound | binding to PDGF-BB (ELISA), recombinant LG domains (PDGF-BB): bound | binding to VEGF-A165 (ELISA), recombinant LG domains (VEGF-A165): bound | binding to PlGF-1 (ELISA), recombinant LG domains (PlGF-1): did not show any binding

— paper PMC5986797, “Laminin heparin-binding peptides bind to several growth factors and enhance diabetic wound healing” (Nature Communications, 2018)
